Among the data in article PMC6555819, “Comprehensive study of nuclear receptor DNA binding provides a revised framework for understanding receptor specificity” are binding signal values, retold here.

The target in one series is PPARa:RXRa (Homo sapiens, UniProt Q07869;P19793 full;full). Description: no ligand; PBM; 270 nM : 90 nM RXRa; PBS pH 7.4, 2% milk, 0.02% Triton X-100, 1 mM DTT, BSA, 0.4 mg/ml salmon testes DNA. Particulars: tags: GST kept;His cleaved; copies: 1;1; label: surface-attached array probe. A digest of the protocol: (§1)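 Ligand-free nuclear receptor dimers were bound for 1 h to custom Agilent 4×180K protein-binding microarrays. Detection used antibodies against each partner (one per run). Binding z-scores rest on regression-normalized fluorescence, with random background probes as the reference.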
Sequence of PPARa:RXRa (Q07869 whole entry, chain 1 of 2): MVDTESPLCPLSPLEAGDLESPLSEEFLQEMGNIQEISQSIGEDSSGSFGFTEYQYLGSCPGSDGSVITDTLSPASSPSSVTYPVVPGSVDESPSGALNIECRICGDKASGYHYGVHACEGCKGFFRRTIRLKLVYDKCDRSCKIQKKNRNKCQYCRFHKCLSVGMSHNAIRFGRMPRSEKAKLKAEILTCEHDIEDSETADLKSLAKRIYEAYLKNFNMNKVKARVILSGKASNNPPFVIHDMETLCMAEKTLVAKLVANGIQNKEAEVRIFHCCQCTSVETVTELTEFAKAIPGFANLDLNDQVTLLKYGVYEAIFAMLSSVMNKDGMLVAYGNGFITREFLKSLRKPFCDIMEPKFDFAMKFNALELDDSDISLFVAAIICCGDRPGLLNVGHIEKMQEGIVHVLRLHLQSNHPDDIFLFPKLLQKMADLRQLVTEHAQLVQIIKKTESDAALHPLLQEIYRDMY
Sequence of PPARa:RXRa (P19793 whole entry, chain 2 of 2): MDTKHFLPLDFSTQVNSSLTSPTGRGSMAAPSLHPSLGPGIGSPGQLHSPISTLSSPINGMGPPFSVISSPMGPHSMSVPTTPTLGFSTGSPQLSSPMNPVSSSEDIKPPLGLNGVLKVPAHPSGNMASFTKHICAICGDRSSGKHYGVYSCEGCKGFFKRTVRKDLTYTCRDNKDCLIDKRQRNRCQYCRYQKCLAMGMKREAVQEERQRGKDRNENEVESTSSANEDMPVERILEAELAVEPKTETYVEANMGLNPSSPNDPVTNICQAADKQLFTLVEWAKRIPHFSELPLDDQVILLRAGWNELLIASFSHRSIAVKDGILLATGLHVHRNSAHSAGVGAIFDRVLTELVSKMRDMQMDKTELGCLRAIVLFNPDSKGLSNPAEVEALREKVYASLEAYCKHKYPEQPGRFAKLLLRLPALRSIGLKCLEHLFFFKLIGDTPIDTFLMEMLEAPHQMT

The target of the next series is RARb:RXRa (Homo sapiens, UniProt P10826;P19793 full;full). The series is described as above. Particulars: tags: His kept;His cleaved; copies: 1;1; label: surface-attached array probe. In short, it runs like this:
as §1

A further series addresses FXR:RXRa (Homo sapiens, UniProt Q96RI1;P19793 full;full). Described as above. The following applies: tags: His kept;His cleaved; copies: 1;1; label: surface-attached array probe. In short, it runs like this: as §1
A further series addresses RARg:RXRa (Homo sapiens, UniProt P13631;P19793 full;full). The description is as above. The following applies: tags: His kept;His cleaved; copies: 1;1; label: surface-attached array probe. In short, it runs like this:
as §1

The target of another series is RXRa (Homo sapiens, UniProt P19793). Description: no ligand; PBM; 180 nM; PBS pH 7.4, 2% milk, 0.02% Triton X-100, 1 mM DTT, BSA, 0.4 mg/ml salmon testes DNA. The following applies: tags: His cleaved; chain copies: 2; label: surface-attached array probe.
Sequence of RXRa (P19793 whole entry): as the sequence (P19793 whole entry, chain 2 of 2) above

Sequence of RARg:RXRa (P13631 whole entry, chain 1 of 2): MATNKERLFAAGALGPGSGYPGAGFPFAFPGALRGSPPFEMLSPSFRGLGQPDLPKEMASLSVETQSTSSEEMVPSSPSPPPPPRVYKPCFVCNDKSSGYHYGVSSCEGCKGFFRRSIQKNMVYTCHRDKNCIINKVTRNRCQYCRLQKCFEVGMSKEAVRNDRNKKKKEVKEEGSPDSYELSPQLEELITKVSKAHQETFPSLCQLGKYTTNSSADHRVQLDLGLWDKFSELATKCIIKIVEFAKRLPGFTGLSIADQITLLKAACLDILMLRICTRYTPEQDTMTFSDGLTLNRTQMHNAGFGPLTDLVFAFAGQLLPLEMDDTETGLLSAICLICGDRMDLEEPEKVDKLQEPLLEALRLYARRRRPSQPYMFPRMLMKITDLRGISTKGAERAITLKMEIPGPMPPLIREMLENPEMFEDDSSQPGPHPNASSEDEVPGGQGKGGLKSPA
Sequence of RARg:RXRa (P19793 whole entry, chain 2 of 2): as the sequence (P19793 whole entry, chain 2 of 2) above
Sequence of RARb:RXRa (P10826 whole entry, chain 1 of 2): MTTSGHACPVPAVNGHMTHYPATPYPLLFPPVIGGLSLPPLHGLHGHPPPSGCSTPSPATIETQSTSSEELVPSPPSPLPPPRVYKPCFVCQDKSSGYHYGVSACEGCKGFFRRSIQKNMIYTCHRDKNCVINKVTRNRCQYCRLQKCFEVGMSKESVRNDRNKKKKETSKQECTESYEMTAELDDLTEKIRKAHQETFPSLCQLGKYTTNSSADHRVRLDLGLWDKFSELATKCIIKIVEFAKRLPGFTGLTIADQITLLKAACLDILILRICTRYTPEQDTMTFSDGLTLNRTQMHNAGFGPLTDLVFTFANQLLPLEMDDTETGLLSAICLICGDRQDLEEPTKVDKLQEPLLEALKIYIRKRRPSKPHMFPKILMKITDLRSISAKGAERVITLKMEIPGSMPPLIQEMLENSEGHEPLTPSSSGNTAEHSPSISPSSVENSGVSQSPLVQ
Sequence of RARb:RXRa (P19793 whole entry, chain 2 of 2): as the sequence (P19793 whole entry, chain 2 of 2) above
Sequence of FXR:RXRa (Q96RI1 whole entry, chain 1 of 2): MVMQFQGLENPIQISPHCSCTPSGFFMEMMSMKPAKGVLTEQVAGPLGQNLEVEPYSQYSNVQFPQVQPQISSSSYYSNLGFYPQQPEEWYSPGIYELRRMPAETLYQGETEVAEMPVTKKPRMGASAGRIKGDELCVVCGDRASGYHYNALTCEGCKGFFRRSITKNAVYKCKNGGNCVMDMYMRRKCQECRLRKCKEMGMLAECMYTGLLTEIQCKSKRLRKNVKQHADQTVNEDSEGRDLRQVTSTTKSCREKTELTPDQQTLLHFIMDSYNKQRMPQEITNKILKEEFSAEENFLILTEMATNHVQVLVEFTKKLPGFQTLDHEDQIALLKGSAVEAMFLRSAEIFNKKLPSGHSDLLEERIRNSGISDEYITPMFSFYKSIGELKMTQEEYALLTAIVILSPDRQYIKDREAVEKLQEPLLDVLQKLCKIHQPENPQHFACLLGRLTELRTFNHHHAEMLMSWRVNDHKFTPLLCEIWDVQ
Sequence of FXR:RXRa (P19793 whole entry, chain 2 of 2): as the sequence (P19793 whole entry, chain 2 of 2) above

B1: NRC3_random_hg19_411_o1 (dsDNA)
DNA 1: GCATTGAGCAGGTGTTGATTACAAATGAGATGTTTCGCGATTGACAGCGTAGAATGAAGG
DNA 2: CCTTCATTCTACGCTGTCAATCGCGAAACATCTCATTTGTAATCAACACCTGCTCAATGC
Consider B1, for which the binding signal with PPARa:RXRa is 0.03 PBM z-score against 500 random probes; with RARb:RXRa it was 0 PBM z-score against 500 random probes.

B2: NRC3_random_hg19_72_o1 (dsDNA)
DNA 1: GCTCCCAACTAGCTGGAACTACAGGCACCTGCCACCGCGATTGACAGCGTAGAATGAAGG
DNA 2: CCTTCATTCTACGCTGTCAATCGCGGTGGCAGGTGCCTGTAGTTCCAGCTAGTTGGGAGC
B2: the figures for the binding signal in the series with PPARa:RXRa and with RARb:RXRa were 0.23 PBM z-score against 500 random probes and -0.32 PBM z-score against 500 random probes, respectively.

B3: NRC3_wobSeed23_DR0_G12T_o1 (dsDNA)
DNA 1: GCGGAACGAGGTCAAGTTGATAGCAGAGTTTGATGGGCGATTGACAGCGTAGAATGAAGG
DNA 2: CCTTCATTCTACGCTGTCAATCGCCCATCAAACTCTGCTATCAACTTGACCTCGTTCCGC
On to B3, for which the results for the binding signal with FXR:RXRa and with RARb:RXRa were 8.18 PBM z-score against 500 random probes and 5.45 PBM z-score against 500 random probes, respectively.

B4: NRC3_wobSeed134_DR5_T8G_o1 (dsDNA)
DNA 1: GCGCTGCGAGGTCAACTGATGGTCAGCTAAAGCTCGGCGATTGACAGCGTAGAATGAAGG
DNA 2: CCTTCATTCTACGCTGTCAATCGCCGAGCTTTAGCTGACCATCAGTTGACCTCGCAGCGC
In the case of B4, the binding signal with FXR:RXRa was 7.7 PBM z-score against 500 random probes; with RARb:RXRa it was 5.49 PBM z-score against 500 random probes; with RARg:RXRa, 7.43 PBM z-score against 500 random probes.

B5: NRC3_random_hg19_369_o1 (dsDNA)
DNA 1: GCCAACCCTCTTTCATGTCTGTAAGGAGCTTACCTGGCGATTGACAGCGTAGAATGAAGG
DNA 2: CCTTCATTCTACGCTGTCAATCGCCAGGTAAGCTCCTTACAGACATGAAAGAGGGTTGGC
In the case of B5, the binding signal is 0.38 PBM z-score against 500 random probes in the series with FXR:RXRa, 0.12 PBM z-score against 500 random probes with RARb:RXRa and -0.32 PBM z-score against 500 random probes in the series with RARg:RXRa.

B6: NRC3_wobSeed1_DR0_C7A_o1 (dsDNA)
DNA 1: GCCAAAATAGGTCAAGGTCAAAGTCGGTTTGTGCCAGCGATTGACAGCGTAGAATGAAGG
DNA 2: CCTTCATTCTACGCTGTCAATCGCTGGCACAAACCGACTTTGACCTTGACCTATTTTGGC
With B6, the binding signal in the series with PPARa:RXRa is 6.51 PBM z-score against 500 random probes; with RARb:RXRa, 5.5 PBM z-score against 500 random probes.

B7: NRC3_random_hg19_482_o1 (dsDNA)
DNA 1: GCCATCCTGTAAGACACTTCCTCTAAGAAATGGCTAGCGATTGACAGCGTAGAATGAAGG
DNA 2: CCTTCATTCTACGCTGTCAATCGCTAGCCATTTCTTAGAGGAAGTGTCTTACAGGATGGC
For B7, the binding signal is -0.03 PBM z-score against 500 random probes in the series with RARb:RXRa and 0.13 PBM z-score against 500 random probes in the series with RARg:RXRa.

B8: NRC3_random_hg19_291_o1 (dsDNA)
DNA 1: GCGAGCAAAGGGACTTCTTAGATGGTGGTGGGCAAGGCGATTGACAGCGTAGAATGAAGG
DNA 2: CCTTCATTCTACGCTGTCAATCGCCTTGCCCACCACCATCTAAGAAGTCCCTTTGCTCGC
As to B8, the binding signal in the series with RARb:RXRa was -0.49 PBM z-score against 500 random probes.

B9: NRC3_wobSeed29_DR1_T22C_o1 (dsDNA)
DNA 1: GCGCTTACGGGTCAAAGGTTACAGCATGAATAGAATGCGATTGACAGCGTAGAATGAAGG
DNA 2: CCTTCATTCTACGCTGTCAATCGCATTCTATTCATGCTGTAACCTTTGACCCGTAAGCGC
B9: in the series with RXRa, the binding signal was 9.84 PBM z-score against 500 random probes.

B10: NRC3_random_hg19_440_o1 (dsDNA)
DNA 1: GCGAAGGAGTTCTTATCTGGCCAGTTCCCATCCTGTGCGATTGACAGCGTAGAATGAAGG
DNA 2: CCTTCATTCTACGCTGTCAATCGCACAGGATGGGAACTGGCCAGATAAGAACTCCTTCGC
With B10, the binding signal with PPARa:RXRa is -0.35 PBM z-score against 500 random probes; with RARb:RXRa it was -0.36 PBM z-score against 500 random probes; with RARg:RXRa, -0.83 PBM z-score against 500 random probes.

B11: NRC3_wobSeed4_DR0_A20T_o1 (dsDNA)
DNA 1: GCCCTACTGGGCCAAGGTCTTTGATCAGTCAAAGCAGCGATTGACAGCGTAGAATGAAGG
DNA 2: CCTTCATTCTACGCTGTCAATCGCTGCTTTGACTGATCAAAGACCTTGGCCCAGTAGGGC
B11: the binding signal is 0.29 PBM z-score against 500 random probes with PPARa:RXRa and 0.33 PBM z-score against 500 random probes in the series with RARb:RXRa.

B12: NRC3_random_hg19_283_o1 (dsDNA)
DNA 1: GCTAGCTTACCTGGATCCACTTGGCCACTAGATTTGGCGATTGACAGCGTAGAATGAAGG
DNA 2: CCTTCATTCTACGCTGTCAATCGCCAAATCTAGTGGCCAAGTGGATCCAGGTAAGCTAGC
Take B12: the binding signal with RARb:RXRa was -0.42 PBM z-score against 500 random probes.

B13: NRC3_random_hg19_437_o1 (dsDNA)
DNA 1: GCCGTGTTGGCAGGTGCCTGTACTCTCAGCTACTCGGCGATTGACAGCGTAGAATGAAGG
DNA 2: CCTTCATTCTACGCTGTCAATCGCCGAGTAGCTGAGAGTACAGGCACCTGCCAACACGGC
Consider B13, for which the binding signal was -0.58 PBM z-score against 500 random probes in the series with PPARa:RXRa and -0.44 PBM z-score against 500 random probes with RARb:RXRa.

B14: NRC3_random_hg19_268_o1 (dsDNA)
DNA 1: GCTGTTCTTTGGCAGTCTAGAGAATCAGAAGAGCAAGCGATTGACAGCGTAGAATGAAGG
DNA 2: CCTTCATTCTACGCTGTCAATCGCTTGCTCTTCTGATTCTCTAGACTGCCAAAGAACAGC
As for B14, the binding signal in the series with RARb:RXRa was -1.08 PBM z-score against 500 random probes.

B15: NRC3_random_hg19_306_o1 (dsDNA)
DNA 1: GCAGAGCCCACTTCACTTCCTCAGAAACAGCCCTCCGCGATTGACAGCGTAGAATGAAGG
DNA 2: CCTTCATTCTACGCTGTCAATCGCGGAGGGCTGTTTCTGAGGAAGTGAAGTGGGCTCTGC
In the case of B15, the binding signal in the series with PPARa:RXRa is -0.34 PBM z-score against 500 random probes; with RARb:RXRa it was -0.38 PBM z-score against 500 random probes.

B16: NRC3_random_hg19_434_o1 (dsDNA)
DNA 1: GCCACATGAAAGCTGACAACAGAAGCACTCCAACACGCGATTGACAGCGTAGAATGAAGG
DNA 2: CCTTCATTCTACGCTGTCAATCGCGTGTTGGAGTGCTTCTGTTGTCAGCTTTCATGTGGC
As to B16, in the series with RARb:RXRa, the binding signal was -0.24 PBM z-score against 500 random probes.

B17: NRC3_wobSeed69_DR2_G10T_o1 (dsDNA)
DNA 1: GCAGTCAAATTTCACTAGGTAACGTAAGATTCAGCTGCGATTGACAGCGTAGAATGAAGG
DNA 2: CCTTCATTCTACGCTGTCAATCGCAGCTGAATCTTACGTTACCTAGTGAAATTTGACTGC
As to B17, the figures for the binding signal with PPARa:RXRa and in the series with RARb:RXRa were 0.35 PBM z-score against 500 random probes and 0.27 PBM z-score against 500 random probes, respectively.

B18: NRC3_random_hg19_141_o1 (dsDNA)
DNA 1: GCATTCTACCACTTCTTGCACCTAGTGCTGCTGTTCGCGATTGACAGCGTAGAATGAAGG
DNA 2: CCTTCATTCTACGCTGTCAATCGCGAACAGCAGCACTAGGTGCAAGAAGTGGTAGAATGC
For the molecule B18, the binding signal with PPARa:RXRa was 0.17 PBM z-score against 500 random probes; in the series with RARb:RXRa, 0.19 PBM z-score against 500 random probes.

B19: NRC3_random_hg19_320_o1 (dsDNA)
DNA 1: GCCACACTTGCAGAGGAGAAAGGAGTTTGGAAAGCCGCGATTGACAGCGTAGAATGAAGG
DNA 2: CCTTCATTCTACGCTGTCAATCGCGGCTTTCCAAACTCCTTTCTCCTCTGCAAGTGTGGC
In the case of B19, the values for the binding signal in the series with FXR:RXRa, in the series with PPARa:RXRa and with RARb:RXRa were 0.28 PBM z-score against 500 random probes, -0.22 PBM z-score against 500 random probes and -0.07 PBM z-score against 500 random probes, respectively.

B20: NRC3_wobSeed22_DR0_G13C_o1 (dsDNA)
DNA 1: GCTTACCAAGGTCAAGGTCGTTGATCCCTCTGTAGAGCGATTGACAGCGTAGAATGAAGG
DNA 2: CCTTCATTCTACGCTGTCAATCGCTCTACAGAGGGATCAACGACCTTGACCTTGGTAAGC
As to B20, the results for the binding signal with FXR:RXRa and with RARb:RXRa were 7.79 PBM z-score against 500 random probes and 5.5 PBM z-score against 500 random probes, respectively.

B21: NRC3_wobSeed87_DR3_G10A_o1 (dsDNA)
DNA 1: GCCGAACTAAGTCATCCAGGACAGTGAATACATTGAGCGATTGACAGCGTAGAATGAAGG
DNA 2: CCTTCATTCTACGCTGTCAATCGCTCAATGTATTCACTGTCCTGGATGACTTAGTTCGGC
As to B21, the results for the binding signal with RARb:RXRa and with RARg:RXRa were 0.37 PBM z-score against 500 random probes and 0.43 PBM z-score against 500 random probes, respectively.

B22: NRC3_wobSeed13_DR0_A15C_o1 (dsDNA)
DNA 1: GCCGTCCAAGGTCACGGTCAGTGAAAGAGACTCGAAGCGATTGACAGCGTAGAATGAAGG
DNA 2: CCTTCATTCTACGCTGTCAATCGCTTCGAGTCTCTTTCACTGACCGTGACCTTGGACGGC
Consider B22, for which the binding signal in the series with FXR:RXRa is 8.3 PBM z-score against 500 random probes; with RARb:RXRa, 5.97 PBM z-score against 500 random probes.

B23: NRC3_wobSeed135_DR5_G10A_o1 (dsDNA)
DNA 1: GCCGAACTAAGTCATTGACAGGACAGTGAATAGTAAGCGATTGACAGCGTAGAATGAAGG
DNA 2: CCTTCATTCTACGCTGTCAATCGCTTACTATTCACTGTCCTGTCAATGACTTAGTTCGGC
Consider B23, for which the binding signal with RARb:RXRa is 0.2 PBM z-score against 500 random probes; with RARg:RXRa, 0.48 PBM z-score against 500 random probes.

B24: NRC3_wobSeed49_DR2_C7G_o1 (dsDNA)
DNA 1: GCCAAAGTAGGTCAAGAGGTCAAAGTCCGCTTCCCGGCGATTGACAGCGTAGAATGAAGG
DNA 2: CCTTCATTCTACGCTGTCAATCGCCGGGAAGCGGACTTTGACCTCTTGACCTACTTTGGC
B24: the binding signal with RXRa is 8.95 PBM z-score against 500 random probes.

B25: NRC3_random_hg19_52_o1 (dsDNA)
DNA 1: GCCCAGGAGCAGTGGCTCACGCCTGTAATCCCAGCAGCGATTGACAGCGTAGAATGAAGG
DNA 2: CCTTCATTCTACGCTGTCAATCGCTGCTGGGATTACAGGCGTGAGCCACTGCTCCTGGGC
On to B25, for which the binding signal is -0.74 PBM z-score against 500 random probes with PPARa:RXRa and -0.55 PBM z-score against 500 random probes with RARb:RXRa.
